# Measured values published in patent US20110077383A1 (AstraZeneca / MedImmune, published 2011).
# B1: mAb 12G3H11, human anti-human EphA2 monoclonal antibody, wild type hinge (antibody, human IgG1, V domains shown)
# VH: QMQLVQSGPEVKKPGTSVKVSCKASGFTFDDYSMNWVRQARGQRLEWIGFIRNKANDYTTEYADSVKGRVTITRDMSTSTAYMELSSLRSEDTAVYYCARYPRHHAMDSWGQGTSVTVSS
# VL: DIQMTQSPSSLSASVGDRVTITCRASQSISNNLHWYQQKPGKAPKLLIKYAFQSISGVPSRFSGSGSGTDFTFTISSLQPEDFATYYCQQANSWPLTFGGGTKVEIK
# notes: Human IgG1/kappa expressed in HEK 293 cells; also called Wild type (12G3H11); 12G3H11 “wild type”; not shown: human kappa light chain constant region
# B2: 12G3H11 Fc variant 11-4 AA Delete (antibody, IgG1)
# heavy (part 1 of 2): B1 VH
# heavy (part 2 of 2): not shown
# light: B1 VL
# notes: domain: lower hinge, CH2, CH3; 12G3H11 IgG1/kappa; T223, H224, P227 and P228 deleted; not shown: human IgG1 heavy chain constant region, CH1 up to EU 215; human IgG1 heavy chain constant region from EU 231 (lower hinge, CH2, CH3); human kappa light chain constant region
# B3: 12G3H11 Fc variant 5-GGG Insert Low (antibody, IgG1)
# heavy (part 1 of 2): B1 VH
# heavy (part 2 of 2): not shown
# light: B1 VL
# notes: domain: lower hinge, CH2, CH3; 12G3H11 IgG1/kappa; GGG inserted between P227 and P228; not shown: human IgG1 heavy chain constant region, CH1 up to EU 215; human IgG1 heavy chain constant region from EU 231 (lower hinge, CH2, CH3); human kappa light chain constant region
# B4: 12G3H11 Fc variant 13-2 AA Delete Mid (antibody, IgG1)
# heavy (part 1 of 2): B1 VH
# heavy (part 2 of 2): not shown
# light: B1 VL
# notes: domain: lower hinge, CH2, CH3; 12G3H11 IgG1/kappa; T223 and H224 deleted; not shown: human IgG1 heavy chain constant region, CH1 up to EU 215; human IgG1 heavy chain constant region from EU 231 (lower hinge, CH2, CH3); human kappa light chain constant region
# B5: 12G3H11 Fc variant 14-T to C Middle (antibody, IgG1)
# heavy (part 1 of 2): B1 VH
# heavy (part 2 of 2): not shown
# light: B1 VL
# notes: domain: lower hinge, CH2, CH3; 12G3H11 IgG1/kappa; T223C; not shown: human IgG1 heavy chain constant region, CH1 up to EU 215; human IgG1 heavy chain constant region from EU 231 (lower hinge, CH2, CH3); human kappa light chain constant region
# B6: 12G3H11 Fc variant 18-EPKS to PPPP (antibody, IgG1)
# heavy (part 1 of 2): B1 VH
# heavy (part 2 of 2): not shown
# light: B1 VL
# notes: domain: lower hinge, CH2, CH3; 12G3H11 IgG1/kappa; EPKS replaced by PPPP; not shown: human IgG1 heavy chain constant region, CH1 up to EU 215; human IgG1 heavy chain constant region from EU 231 (lower hinge, CH2, CH3); human kappa light chain constant region
# B7: 12G3H11 Fc variant 6-GGG Insert High (antibody, IgG1)
# heavy (part 1 of 2): B1 VH
# heavy (part 2 of 2): not shown
# light: B1 VL
# notes: domain: lower hinge, CH2, CH3; 12G3H11 IgG1/kappa; GGG inserted between D(Kabat 234) and K222; not shown: human IgG1 heavy chain constant region, CH1 up to EU 215; human IgG1 heavy chain constant region from EU 231 (lower hinge, CH2, CH3); human kappa light chain constant region
# Target: T1, human EphA2-Fc (human, UniProt P29317 25-534, limits assumed)
# T1 construct: Coated on Azlactone beads and titrated in solution in KinExA; not shown: Fc part
# Assay: KinExA, EphA2-Fc beads, solution equilibrium titration
# Procedure: Protein concentrations were calculated by the BCA method. […] Coated beads were then separated from unreacted EphA2-Fc using a gentle pulse spin and blocked for approximately 2 h at room temperature with 1 M Tris, pH 8.0, bovine serum albumin 10 mg/mL. Beads were then resuspended in 30 mL of run buffer (PBS, pH 7.4-0.02% NaN₃) and packed into a column. […] The amount of free IgG in the samples was derived from the fluorescence signal obtained after the passing of Cy5-labeled goat anti-human IgG F(ab′)₂ (typically 0.5-2 μg/ml; Jackson ImmunoResearch Laboratories, West Grove, Pa.) through the column.
# T1 sequence (P29317 25-534 limits assumed): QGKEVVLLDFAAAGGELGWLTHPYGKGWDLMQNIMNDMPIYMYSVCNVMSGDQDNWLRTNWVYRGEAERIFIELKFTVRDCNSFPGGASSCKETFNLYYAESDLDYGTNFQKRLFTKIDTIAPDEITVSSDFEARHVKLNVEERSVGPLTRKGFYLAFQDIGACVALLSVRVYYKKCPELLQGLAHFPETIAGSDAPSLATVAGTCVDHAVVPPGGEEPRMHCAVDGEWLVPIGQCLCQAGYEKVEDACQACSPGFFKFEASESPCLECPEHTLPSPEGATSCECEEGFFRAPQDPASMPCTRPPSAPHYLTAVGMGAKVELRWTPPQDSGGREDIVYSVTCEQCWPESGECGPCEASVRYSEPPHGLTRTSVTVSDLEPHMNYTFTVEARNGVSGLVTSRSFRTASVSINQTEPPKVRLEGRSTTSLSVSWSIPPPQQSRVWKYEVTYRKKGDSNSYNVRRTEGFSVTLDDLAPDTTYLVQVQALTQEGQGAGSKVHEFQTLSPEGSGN
row,Kd,Binder
1,1.1 pM,B1
2,≤ 1 pM,B2
3,0.8 pM,B3
4,1.7 pM,B4
5,7.2 pM,B5
6,1.5 pM,B6
7,2.7 pM,B7
